Laboratory results published in the MegaScale stability set (Tsuboyama et al. 2023).

B1: r11_951_TrROS_Hall (parent)
chain: KKKYVIKVYFEDTGKEVEIEAESKEEALEAAKRLAEELGLKIKKVEIYP

Variants of: B1
Assay: folding stability dG (cDNA display proteolysis); higher = more stable
Conditions: PBS, room temperature

Folding stability dG [kcal/mol]: each site, then its substitutions
L34: S 4.01; D 2.95; I 4.27; R 4.32; Q 3.99; Y 4.45; A 4.16; E 3.68; N 3.66; W 4.57; C 3.85; H 4.22; T 4.25; G 3.15; F 4.52; V 4.51; M 4.55; P 1.34; K 4.35
R33: F 4.38; Y 4.63; K 4.39; I 4.28; S 4.2; E 4.03; C 4.17; H 4.18; P 2.02; Q 4.02; N 4.22; M 4.32; L 4.23; D 4.09; A 4.04; V 4.22; T 4.18; W 4.65; G 4.21
I42: D 2.38; A 3.21; M 3.99; Y 3.75; F 4.01; G 2.51; L 4.32; N 2.55; V 4.17; Q 2.53; K 2.18; T 2.88; C 3.57; S 2.64; P 3.23; W 4.05; R 2.53; H 2.67; E 2.5
E29: N 4.53; L 4.94; I 4.48; H 4.51; R 4.64; V 4.53; D 4.44; Q 4.22; T 4.71; G 4.29; M 4.77; K 4.53; P 3.83; S 4.56
A31: Q 2.81; N 1.73; M 4.4; S 4.2; Y 4.33; R 2.47; T 4.01; H 2.62; V 4.45; L 4.21; W 4.25; F 4.48; P 3.02; D 0.894; K 2.42; E 2.11; I 4.2; G 4.15; C 4.18
K43: F 4.53; W 4.81; A 4.4; C 4.13; R 4.64; S 4.15; M 4.44; L 4.36; V 4.22; G 4.25; P 2.93; H 4.33; E 4.35; Q 4.26; I 4.43; D 4.29; N 4.29; T 4.32
A30: S 4.45; L 4.66; R 4.58; M 4.47; Q 4.44; G 4.4; V 4.44; H 4.57; D 4.16; P 2.07; E 4.31; Y 4.89; I 4.49; F 4.66; N 4.41; K 4.33; T 4.38; C 4.16
E46: Y 4.61; C 4.15; D 4.38; S 4.33; W 4.47; Q 4.26; R 4.16; V 4.66; G 3.71; H 4.53; K 4.22; P 2.41; N 4.19; I 4.47; F 4.64; M 4.49; T 4.36; L 4.38; A 4.32
I47: A 4.17; C 4.13; D 3.99
K44: L 4.14; W 4.24; V 4.17; M 4.31; A 4.26; Q 4.34; P 2.69; Y 4.34; F 4.3; D 3.95; S 4.42; H 4.47; I 4.21; N 4.41; R 4.4; T 4.17; G 4.12; E 4.25; C 4.11
